This assay concerns the target F-actin (skeletal muscle actin) (Oryctolagus cuniculus, UniProt P68135). Briefly: high-speed co-sedimentation.

B1: TRIOBP-4 isoform 4 (protein)
chain: MSMEQDTRALLPTQGTAWATASAPVARLQGPQGDSHQACSQEPHSPSSAEAPYCDLPRCPPALQNPLRTTTCVGQSVHSLGLGLGQEPQRVWSPTTALPAEGPAAAPKNRHQDSEGIPYLEGLARSSCTDDNDNKDEDEDPNSNTSSSQDSNTPHDTSNSSSVDWDTTERPGVVPSRNRLTEMIPRRPQEGLRADSARKATRSPARGDTAGQRKENSGSGGQSAGQHWAKLRSESGYFSLERQRSGQTQASSGTPPSGPRGTTQASSAQRDVFQAAPAQEAPQTSSLPRNTQRDTQRSTPRTSSPSRVSQRDTPRVMSTQRKNTPLSSPLRATPETLKISAPEDGTHVTPSPCVQDSSLNRTSQRDSSRTPCIQWDNPRASSPNRTTQRDNPRTPCTQRDNPRASSPNRTTQRDNPRTPCTQRDNPRASSPNRTTQRDNPRTPCAQRDNPRAASPNRSTQRDSPRTPCAQRDNPRASSPNRTAQRDNPRTPCAQRDNPRTSCTSQNTPRTPSTQADKTTASCSKWEHLRSACTQRDNPRTFSQGCTQKDNPGPPSPRRATQGSNSRNPSPHRTNKDIPWASFPLRPTQSDSPRTSSPSRTKQNQVPWASISLRPTQGDKPQTSAPTRLAHNDPPQQYSPSLATTSSSSHNPGHSSASRTSSPLHAAPRGAPQTSLESSQPPCTVCIGHRDAPRASSPPRYFQYDPFPFFPDPRSSESESPHHEPPYMPPAVCIGHRDAPRATSPPRHTQFDPFPFLPDTSDADNESPQHDPPQFPPPVCIGYRDAPRASSPPRQFPEPSFFQDLPRASTESLVPSTDSMHEPPHIPTPVCIGHRDAPSFSSPPRQAPEPSLFFQDPPGTSMESLAPSIDSLHGCPLLPPQVCIGHRDAPRASSPPRHPPSDIGLLAPSPPPGSSGSRGSAPPGETRHNLEREEYTMLADLPPPRRLAQRGPEPQAQGSNEGRTRSPGRAEVERLFGQERRKSEAPGAFQTRDEGRSQRPSQAQSQLRRQSSPAP
modifications: N-terminal GFP and C-terminal FLAG fusion on TRIOBP-4, filamentous actin
B1 yielded a Kd of 940 nM.

What is called Kd is the concentration at which binding is half-saturated. Read a high Kd as a looser complex.

(Values after PMC2879707 (2011).)
